This is an account of results in EP1098979B1 (Boehringer Ingelheim International GmbH, dated 2007).

Assay [1] has as its target human fibroblast activation protein alpha (FAP) on the cell surface (human) (UniProt Q12884). Kind of assay: flow cytometry, MF-SH cells with endogenous FAP, antibody at 4000 ng/ml.
Assay [2] shares this target. The experiment in a line: flow cytometry, HT-1080FAP clone 33 cells, antibody at 0.8 ng/ml, FITC anti-human IgG.
Assay [3] has the same target. Kind of assay: flow cytometry, HT-1080FAP clone 33 cells, antibody at 4.0 ng/ml, FITC anti-human IgG.
The target is the same in assay [4]. Kind of assay: flow cytometry, HT-1080FAP clone 33 cells, antibody at 20.0 ng/ml, FITC anti-human IgG.
The target is the same in assay [5]. Kind of assay: flow cytometry, HT-1080FAP clone 33 cells, antibody at 100.0 ng/ml, FITC anti-human IgG.
For assay [6] the target is unchanged. Kind of assay: flow cytometry, HT-1080FAP clone 33 cells, antibody at 500.0 ng/ml, FITC anti-human IgG. (In general: In flow cytometry, cells or beads pass a laser one at a time.)
Assay [7] has the same target. Kind of assay: flow cytometry, HT-1080FAP clone 33 cells, biotinylated antibody at 1.6 ng/ml, streptavidin-FITC.
The target is the same in assay [8]. The experiment in a line: flow cytometry, HT-1080FAP clone 33 cells, biotinylated antibody at 8.0 ng/ml, streptavidin-FITC.
Assay [9] shares this target. The experiment in a line: flow cytometry, HT-1080FAP clone 33 cells, biotinylated antibody at 40.0 ng/ml, streptavidin-FITC.
Assay [10] shares this target. The experiment in a line: flow cytometry, HT-1080FAP clone 33 cells, biotinylated antibody at 200.0 ng/ml, streptavidin-FITC.
Assay [11] shares this target. Kind of assay: flow cytometry, HT-1080FAP clone 33 cells, biotinylated antibody at 1,000.0 ng/ml, streptavidin-FITC.
Assay [12] shares this target. Kind of assay: flow cytometry, HT-1080FAP clone 33 cells, biotinylated antibody at 5,000.0 ng/ml, streptavidin-FITC.
Assay [13] shares this target. The experiment in a line: competition flow cytometry, HT-1080FAP clone 33 cells, unlabelled competitor at 1.00 µg/ml against 1 µg/ml biotinylated cF19; signal of bound biotinylated cF19.
The target is the same in assay [14]. The experiment in a line: competition flow cytometry, HT-1080FAP clone 33 cells, unlabelled competitor at 3.16 µg/ml against 1 µg/ml biotinylated cF19; signal of bound biotinylated cF19.
The target is the same in assay [15]. Kind of assay: competition flow cytometry, HT-1080FAP clone 33 cells, unlabelled competitor at 10.00 µg/ml against 1 µg/ml biotinylated cF19; signal of bound biotinylated cF19.
For assay [16] the target is unchanged. The experiment in a line: competition flow cytometry, HT-1080FAP clone 33 cells, unlabelled competitor at 31.66 µg/ml against 1 µg/ml biotinylated cF19; signal of bound biotinylated cF19.
Assay [17] addresses T1, recombinant membrane-bound human FAP solubilised in detergent extracts of transfected cells (293FAP 1/2, … (human, UniProt Q12884 1-760)).
T1 construct: Same protein as m5, but isolated from the cells; also called recombinant human FAP
T1 sequence (looked up): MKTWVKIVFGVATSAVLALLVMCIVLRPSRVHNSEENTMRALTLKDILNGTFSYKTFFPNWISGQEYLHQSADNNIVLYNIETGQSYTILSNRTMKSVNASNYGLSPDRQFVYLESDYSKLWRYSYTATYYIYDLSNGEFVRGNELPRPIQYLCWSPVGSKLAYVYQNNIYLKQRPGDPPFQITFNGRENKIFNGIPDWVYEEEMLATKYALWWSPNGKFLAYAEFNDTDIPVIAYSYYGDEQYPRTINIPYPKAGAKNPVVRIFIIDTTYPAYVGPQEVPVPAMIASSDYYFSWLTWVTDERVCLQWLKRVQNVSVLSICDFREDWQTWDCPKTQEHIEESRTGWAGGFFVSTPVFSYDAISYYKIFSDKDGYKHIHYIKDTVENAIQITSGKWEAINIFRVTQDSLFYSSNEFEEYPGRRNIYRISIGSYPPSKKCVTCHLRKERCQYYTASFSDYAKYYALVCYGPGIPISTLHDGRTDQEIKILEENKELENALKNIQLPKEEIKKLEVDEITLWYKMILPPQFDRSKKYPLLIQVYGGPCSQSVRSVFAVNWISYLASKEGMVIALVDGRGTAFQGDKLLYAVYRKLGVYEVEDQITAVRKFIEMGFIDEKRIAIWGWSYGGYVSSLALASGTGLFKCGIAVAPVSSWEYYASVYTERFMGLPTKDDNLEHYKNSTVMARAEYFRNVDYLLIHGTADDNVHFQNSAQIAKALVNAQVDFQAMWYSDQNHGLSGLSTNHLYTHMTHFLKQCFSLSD
The experiment in a line: sandwich ELISA, detergent extract of 293FAP 1/2 cells on cF19-coated plates, HRP-streptavidin.

The target in assay [18] is T1, recombinant membrane-bound human FAP …. Kind of assay: sandwich ELISA, cF19 as capture antibody. (ELISA stands for enzyme-linked immunosorbent assay.)
Assay [19] concerns the target human fibroblast activation protein alpha (FAP) on the cell surface (human) (UniProt Q12884). The experiment in a line: flow cytometry, MF-SH cells with endogenous FAP, antibody at 500 ng/ml.
Assay [20] has the same target. Kind of assay: flow cytometry, MF-SH cells with endogenous FAP, antibody at 1000 ng/ml.
The target is the same in assay [21]. Kind of assay: flow cytometry, MF-SH cells with endogenous FAP, antibody at 2000 ng/ml.
Assay [22] has the same target. Kind of assay: flow cytometry, HT-1080FAP clone 33 cells, 1 µg/ml biotinylated cF19 without competitor (0.00 µg/ml).

Regarding “hIgG1 (human immunoglobulin, IgG1 subclass), negative control (antibody)”, the Mean fluorescence intensity in assay [1] was 0.6; in assay [2], 0.12; in assay [3], 0.12; in assay [4], 0.12; in [5], 0.12; in [6], 0.12. Further, the Mean fluorescence intensity stood at 0.3 in assay [7]; 0.2 in assay [8]; 0.2 in [9]; 0.2 in assay [10]; 0.2 in [11]; 0.2 in [12]. Further, the Mean fluorescence concentration in [13] was found to be 9; in assay [14], 11.3; in assay [15], 9.8; in assay [16] it was 10.3.

B1: LAHC (reshaped human anti-human FAP monoclonal antibody: F19 human reshaped light chain variable region version A with heavy chain variable region version C, … (antibody, V domains shown)
VH: QVQLVQSGAEVKKPGASVKVSCKTSRYTFTEYTIHWVRQAPGQRLEWIGGINPNNGIPNYNQKFKGRVTITVDTSASTAYMELSSLRSEDTAVYYCARRRIAYGYDEGHAMDYWGQGTLVTVSS
VL: DIVMTQSPDSLAVSLGERATINCKSSQSLLYSRNQKNYLAWYQQKPGQPPKLLIFWASTRESGVPDRFSGSGFGTDFTLTISSLQAEDVAVYYCQQYFSYPLTFGQGTKVEIKR
notes: The name joins light version A (LA) and heavy version C (HC); also called biotinylated LAHC; BIBH 1
B1: in assay [17], the binding result is on record as “binds”.

B2: chimeric F19 antibody (cF19), mouse F19 variable regions joined to human kappa and gamma-1 constant regions (antibody, human IgG1, kappa, V domains shown)
VH: VQLQQSGPELVKPGASVKMSCKTSRYTFTEYTIHWVRQSHGKSLEWIGGINPNNGIPNYNQKFKGRATLTVGKSSSTAYMELRSLTSEDSAVYFCARRRIAYGYDEGHAMDYWGQGTSVTVSS
VL: DIVMSQSPSSLAVSVGEKVTMSCKSSQSLLYSRNQKNYLAWFQQKPGQSPKLLIFWASTRESGVPDRFTGSGFGTDFNLTISSVQAEDLAVYDCQQYFSYPLTFGAGTKLELKR
notes: Biotinylated in some assays; also called biotinylated cF19
As to B2, in assay [18], the binding result is listed as “binds”. In addition, the Mean fluorescence intensity in assay [19] stood at 1.8; in assay [20], 2.4; in [21], 3.3; in assay [1], 3.6; in [2], 0.14; in assay [3] it was 0.17. Also, the Mean fluorescence intensity in [4] was found to be 0.43; in [5], 1.63; in assay [6] it was 6.65; in assay [7], 0.3; in [8], 0.5; in assay [9] it was 1.3. For the same molecule, the Mean fluorescence intensity came out at 4.5 in assay [10], 18.1 in assay [11] and 36.5 in [12]. For the same molecule, the Mean fluorescence concentration in assay [22] worked out at 11.2; in assay [13], 7.5; in assay [14], 4.8; in [15], 1.3; in [16] it was 1.2.
